Assay results reported in patent US20240025949A1, “Beta-Arrestin Effectors and Compositions and Methods of Use Thereof” (Trevena, Inc., priority 2021, published 2024).
Where no end group is shown, it is not given here.

T1: rat AT1aR (Rattus norvegicus, UniProt P25095)
T1 construct: ProLink (β-galactosidase enzyme-donor fragment, from the pCMV-ProLink vector)
T1 sequence (P25095 1-359): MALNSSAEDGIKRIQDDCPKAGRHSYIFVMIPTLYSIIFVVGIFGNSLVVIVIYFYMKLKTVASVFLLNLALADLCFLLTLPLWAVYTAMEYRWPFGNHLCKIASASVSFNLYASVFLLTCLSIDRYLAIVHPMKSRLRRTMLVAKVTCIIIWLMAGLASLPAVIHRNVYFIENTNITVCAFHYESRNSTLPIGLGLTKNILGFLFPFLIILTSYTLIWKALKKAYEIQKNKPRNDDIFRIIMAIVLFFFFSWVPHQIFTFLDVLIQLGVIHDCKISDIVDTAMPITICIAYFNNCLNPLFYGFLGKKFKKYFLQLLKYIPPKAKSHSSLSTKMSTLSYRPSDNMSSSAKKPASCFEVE


Tests used:
rat AT1aR = target: T1, rat AT1aR; test: PathHunter β-arrestin-2 recruitment assay, rat AT1aR; type: cell-based; conditions: PathHunter β-arrestin HEK293 cells, inactive = EC50 greater than 10 uM
[1] = target: human angiotensin 2 type 1 receptor (human) (UniProt P30556); test: cell-based or functional assay
Sequence of human angiotensin 2 type 1 receptor (human) (P30556 whole entry): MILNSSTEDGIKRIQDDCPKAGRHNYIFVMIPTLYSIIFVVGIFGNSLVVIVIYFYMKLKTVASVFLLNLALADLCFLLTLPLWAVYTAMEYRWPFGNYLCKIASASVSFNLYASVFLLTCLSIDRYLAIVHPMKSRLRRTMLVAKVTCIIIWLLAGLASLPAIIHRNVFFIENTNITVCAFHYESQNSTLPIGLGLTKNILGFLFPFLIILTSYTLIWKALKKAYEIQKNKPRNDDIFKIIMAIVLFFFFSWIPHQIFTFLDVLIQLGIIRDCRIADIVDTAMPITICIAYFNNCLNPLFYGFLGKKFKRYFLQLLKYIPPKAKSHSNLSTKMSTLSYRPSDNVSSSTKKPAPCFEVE

[2] = target: rat angiotensin 2 type 1 receptor (rat) (UniProt P25095); test: cell-based or functional assay

| Molecule | rat AT1aR b-arrestin2 EC50 (M) (rat AT1aR) | IP One EC50 [1] [nM] | b-arrestin2 EC50 [1] [nM] | b-arrestin2 Max [1] [%] | IP One EC50 [2] [nM] | IP One Max [2] [%] | b-arrestin2 EC50 [2] [nM] | b-arrestin2 Max [2] [%] | IP One Max [1] [%] |
| --- | --- | --- | --- | --- | --- | --- | --- | --- | --- |
| CCCCC(=O)N(Cc1ccc(-c2ccccc2-c2nnn[nH]2)cc1)[C@H](C(=O)O)C(C)C [Valsartan] | inactive | – | – | – | – | – | – | – | – |
| ERVYYHP (N-methyl; C-terminal amide) [SEQ ID NO: 62 (N-Me-Glu-Arg-Val-Tyr-Tyr-His-Pro-NH2)] | – | > 10000 | 1300 | 24.7 | > 10000 | – | 3900 | 44.2 | – |
| DRVYFHP-NH2 [SEQ ID NO: 63 (Asp-Arg-Val-Tyr-Phe-His-Pro-NH2)] | – | > 10000 | 530 | 35.9 | > 10000 | – | 530 | 50.1 | – |
| RVYIHP-NH2 [SEQ ID NO: 13 (Arg-Val-Tyr-Ile-His-Pro-NH2)] | – | > 10000 | 4600 | 43.4 | > 10000 | – | 43000 | 165 | – |
| ERVYYHP (D-residue; C-terminal amide) [SEQ ID NO: 60 (D-Glu-Arg-Val-Tyr-Tyr-His-Pro-NH2)] | – | > 10000 | 340 | 44 | > 10000 | – | 180 | 79.3 | – |
| RVYYHPI (N-terminal Sar; C-terminal acid) [SEQ ID NO: 14 (Sar-Arg-Val-Tyr-Tyr-His-Pro-Ile-OH)] | – | 160 | 8 | 59.3 | 32 | 19.3 | 14 | 79 | 13.5 |
| ERVYYHP-NH2 [SEQ ID NO: 59 (Glu-Arg-Val-Tyr-Tyr-His-Pro-NH2)] | – | > 10000 | 1400 | 19.5 | > 10000 | – | 820 | 27.8 | – |

Continued, values first:

| rat AT1aR b-arrestin2 EC50 (M) (rat AT1aR) | IP One EC50 [1] [nM] | b-arrestin2 EC50 [1] [nM] | b-arrestin2 Max [1] [%] | IP One EC50 [2] [nM] | IP One Max [2] [%] | b-arrestin2 EC50 [2] [nM] | b-arrestin2 Max [2] [%] | IP One Max [1] [%] | Molecule |
| --- | --- | --- | --- | --- | --- | --- | --- | --- | --- |
| – | > 10000 | 3.4 | 58.9 | 3.5 | 24.4 | 6.1 | 80.7 | – | RVYVHPI (N-terminal Sar; C-terminal acid) [SEQ ID NO: 11 (Sar-Arg-Val-Tyr-Val-His-Pro-Ile-OH)] |
| – | > 10000 | 330 | 48.7 | 1400 | 9.94 | 260 | 81.1 | – | DRVYYHP (D-residue; C-terminal amide) [SEQ ID NO: 58 (D-Asp-Arg-Val-Tyr-Tyr-His-Pro-NH2)] |
| – | > 10000 | 1200 | 37.5 | > 10000 | – | 2100 | 60.4 | – | DRVYYHP (N-methyl; C-terminal amide) [SEQ ID NO: 61 (N-Me-Asp-Arg-Val-Tyr-Tyr-His-Pro-NH2)] |
| – | 190 | 390 | 19.9 | 79 | 44.9 | 120 | 34.4 | 20.7 | RVYVHPI (N-terminal Sar; C-terminal amide) [SEQ ID NO: 12 (Sar-Arg-Val-Tyr-Val-His-Pro-Ile-NH2)] |
